Reference: patent US20120276075

How the values were obtained:
[1] = target: NPY 1-36 (neuropeptide Y)
[2] = target: NPY 3-36
[3] = target: 33-mer of gliadin
[4] = target: BSA, P02769
[5] = target: bradykinin (…)
[6] = target: resorufin-labeled casein

BSA, P02769, sequence (P02769 25-607): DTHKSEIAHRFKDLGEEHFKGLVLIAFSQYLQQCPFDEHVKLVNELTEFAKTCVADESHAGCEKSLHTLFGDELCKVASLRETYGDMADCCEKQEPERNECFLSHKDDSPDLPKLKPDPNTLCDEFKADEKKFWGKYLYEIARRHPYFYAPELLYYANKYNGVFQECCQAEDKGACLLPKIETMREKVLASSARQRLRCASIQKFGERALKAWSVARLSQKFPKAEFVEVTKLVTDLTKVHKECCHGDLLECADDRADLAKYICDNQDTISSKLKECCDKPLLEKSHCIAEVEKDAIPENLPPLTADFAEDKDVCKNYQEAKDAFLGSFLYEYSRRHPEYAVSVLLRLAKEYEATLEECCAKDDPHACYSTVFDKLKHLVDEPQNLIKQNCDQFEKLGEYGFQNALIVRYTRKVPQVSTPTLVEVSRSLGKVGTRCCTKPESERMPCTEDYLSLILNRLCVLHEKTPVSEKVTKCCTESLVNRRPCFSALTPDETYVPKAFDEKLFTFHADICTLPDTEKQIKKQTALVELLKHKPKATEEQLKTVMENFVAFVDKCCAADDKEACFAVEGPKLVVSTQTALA

Row | Protein | digestion of the peptide at acidic pH, mass spectrometry [1] | digestion of the peptide at acidic pH, mass spectrometry [2] | digestion of the peptide by AfuS28 and SedB added together, acidic pH, mass spectrometry [2] | degradation of the peptide by AfuS28 + SedB together, 2 hours at 37 C, pH 4 and pH 8, mass spectrometry [3] | proteolysis of a full length protein substrate [4] | degradation of the peptide, products detected by mass spectrometry [5] | endoproteolytic activity (release of label from resorufin-labeled casein) [6] | degradation of the peptide, products detected by mass spectrometry [1] | degradation of the peptide, products detected by mass spectrometry [2] | full length NPY3-36 remaining after 15 min with 1.8 mU of enzyme at 37 C (degradation kinetics, mass spectrometry) [2]
1 | recombinant Aspergillus fumigatus sedolisin SedB (tripeptidyl-peptidase), produced in Pichia pastoris (protein) TSTCDQVITPQCLKDLYNIGDYKADPNGGSKVAFASFLEEYARYDDLAKFEEKLAPYAIGQNFSVIQYNGGLNDQNSASDSGEANLDLQYIVGVSSPIPVTEFSTGGRGLLIPDLSQPDPNDNSNEPYLEFLQNVLKMDQDKLPQVISTSYGEDEQTIPEKYARSVCNLYAQLGSRGVSVIFSSGDSGVGAACLTNDGTNRTHFPPQFPAACPWVTSVGGTTKTQPEEAVYFSSGGFSDLWERPSWQDSAVKRYLKKLGPRYKGLYNPKGRAFPDVAAQAENYAVFDKGVLHQFDGTSCSAPAFSAIVALLNDARLRAHKPVMGFLNPWLYSKASKGFNDIVKGGSKGCDGRNRFGGTPNGSPVVPYASWNATDGWDPATGLGTPDFGKLLSLAMRR | this enzyme removed tripeptides (YPS, KPD and NPG) from the N-terminus of NPY1-36 until position 10 | NPY3-36 was not digested by recombinant SedB | AfuS28 and SedB added together degraded NPY3-36 in Y, di- and tri-peptides | The enzyme composition AfuS28+SedB provides complete degradation of gliadin into several di-, tri-, tetra- and pentapeptides | – | – | – | – | – | –
2 | recombinant Aspergillus fumigatus prolyl protease AfuS28, His6-tagged, produced in Pichia pastoris (protein) LMPRAPLIPAMKAKVALPSGNATFEQYIDHNNPGLGTFPQRYWYNPEFWAGPGSPVLLFTPGESDAADYDGFLTNKTIVGRFAEEIGGAVILLEHRYWGASSPYPELTTETLQYLTLEQSIADLVHFAKTVNLPFDEIHSSNADNAPWVMTGGSYSGALAAWTASIAPGTFWAYHASSAPVQAIYDFWQYFVPVVEGMPKNCSKDLNRVVEYIDHVYESGDIERQQEIKEMFGLGALKHFDDFAAAITNGPWLWQDMNFVSGYSRFYKFCDAVENVTPGAKSVPGPEGVGLEKALQGYASWFNSTYLPGSCAEYKYWTDKDAVDCYDSYETNSPIYTDKAVNNTSNKQWTWFLCNEPLFYWQDGAPKDESTIVSRIVSAEYWQRQCHAYFPEVNGYTFGSANGKTAEDVNKWTKGWDLTNTTRLIWANGQFDPWRDASVSSKTRPGGPLQSTEQAPVHVIPGGFHCSDQWLVYGEANAGVQKVIDEEVAQIKAWVAEYPKYRKPHHHHHH | – | – | AfuS28 and SedB added together degraded NPY3-36 in Y, di- and tri-peptides | The enzyme composition AfuS28+SedB provides complete degradation of gliadin into several di-, tri-, tetra- and pentapeptides | AfuS28 does not attack full length protein substrates such as resorufin-labeled casein and BSA | Digestion of bradykinin (RPPGFSPFR, SEQ ID NO:28) resulted in RPP, FR, GFSPFR (SEQ ID NO:35) and PGFSPFR (SEQ ID NO:36) fragments | Recombinant AfuS28 showed no detectable proteolytic activity using casein resorufin-labeled as a substrate | AfuS28 was also found to degrade NPY1-36 and NPY3-36, cleaving after proline residues | AfuS28 was also found to degrade NPY1-36 and NPY3-36, cleaving after proline residues | Less than 10% of full length NPY3-36 was still present after 15 min incubation
